94 variants from the supplement of paper PMC10567573 can be followed below.

The labels stand for the following.
B1: MATN2 (parent)
chain: FSLKTFKRKSEVERAVKRMRHLST
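Note: lentivirally expressed fusions sorted by FACS into six bins by GFP to DsRed ratio, PSI derived from sequencing read proportions per bin multiplied by bin number.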

The variants in this series derive from B1. Put plainly: protein stability index of a GFP-peptide fusion (GPS, HEK-293T) (PSI 1-6); higher = more stable. The note with it: c terminus: a fixed tail appended.
On to FSLKTFKRPSEVERAVKRMRHLST [K9P], for which the protein stability index is 1.84. Regarding FSLKTFKRDSEVERAVKRMRHLST [K9D], the protein stability index came to 2.46. As to FSLKTFKRASEVERAVKRMRHLST [K9A], the protein stability index worked out at 1.78.

With FSLKTFKRTSEVERAVKRMRHLST [K9T], the protein stability index was found to be 2.09. With FSLKTFKRNSEVERAVKRMRHLST [K9N], the protein stability index is 1.65.

For FSLKTFKRRSEVERAVKRMRHLST [K9R], the protein stability index was found to be 1.84. Under FSLKTFKRYSEVERAVKRMRHLST [K9Y] stands 2.12; under FSLKTFKRQSEVERAVKRMRHLST [K9Q], 2.52; under FSLKTFKRMSEVERAVKRMRHLST [K9M], 2.98. Under FSLKTFKRVSEVERAVKRMRHLST [K9V] stands 1.25; under FSLKTFKRCSEVERAVKRMRHLST [K9C], 2.91; under FSLKTFKRWSEVERAVKRMRHLST [K9W], 3.18. For FSLKTFKRFSEVERAVKRMRHLST [K9F], the protein stability index stood at 2.25.

In the case of FSLKTFKRISEVERAVKRMRHLST [K9I], the protein stability index came out at 1.91. As to FSLKTFKRESEVERAVKRMRHLST [K9E], the protein stability index amounted to 1.62. As to FSLKTFKRGSEVERAVKRMRHLST [K9G], the protein stability index is 2.46. Take FSLKTFKRSSEVERAVKRMRHLST [K9S]: the protein stability index stood at 2.58. FSLKTRKRKSEVERAVKRMRHLST [F6R]: the protein stability index came out at 2.73.

FSLKTPKRKSEVERAVKRMRHLST [F6P]: the protein stability index is 2.67. Consider FSLKTNKRKSEVERAVKRMRHLST [F6N], for which the protein stability index amounted to 2.38. Under FSLKTTKRKSEVERAVKRMRHLST [F6T] stands 2.75; under FSLKTQKRKSEVERAVKRMRHLST [F6Q], 2.85.

Regarding FSLKTYKRKSEVERAVKRMRHLST [F6Y], the protein stability index was 3.29. Consider FSLKTVKRKSEVERAVKRMRHLST [F6V], for which the protein stability index is 2.96. Take FSLKTWKRKSEVERAVKRMRHLST [F6W]: the protein stability index worked out at 1.16. Consider FSLKTLKRKSEVERAVKRMRHLST [F6L], for which the protein stability index worked out at 2.55. Under FSLKTMKRKSEVERAVKRMRHLST [F6M] stands 2.29; under FSLKTFKRKSEVERAAKRMRHLST [V16A], 2.82.

For FSLKTFKRKSEVERAQKRMRHLST [V16Q], the protein stability index worked out at 2.92. FSLKTFKRKSEVERATKRMRHLST [V16T]: the protein stability index was determined as 3.1.

Take FSLKTFKRKSEVERAHKRMRHLST [V16H]: the protein stability index amounted to 2.19. In the case of FSLKTFKRKSEVERAFKRMRHLST [V16F], the protein stability index worked out at 3.4. Under FSLKTFKRKSEVERAMKRMRHLST [V16M] stands 2.93.

Take FSLKTFKRKSEVERASKRMRHLST [V16S]: the protein stability index came out at 2.57. Under FSLKTFKRKSEVERARKRMRHLST [V16R] stands 2.48; under FSLKTFKRKSEVERANKRMRHLST [V16N], 2.47; under FSLKTFKRKSEVERADKRMRHLST [V16D], 2.15. For FSLKTFKRKSEVERAGKRMRHLST [V16G], the protein stability index worked out at 2.71. Take FSLKTFKRKSEVERAYKRMRHLST [V16Y]: the protein stability index came to 2.1. Regarding FSLKTFKRKSEVERAEKRMRHLST [V16E], the protein stability index came out at 2.43. Turning to FSLKTFKRKSEVERAPKRMRHLST [V16P], the protein stability index amounted to 2.33. As to FSLKTFKRKSEVERAIKRMRHLST [V16I], the protein stability index turned out to be 2.07. For the variant FSLKTFKRKSEVERALKRMRHLST [V16L], the protein stability index stood at 1.51. Turning to FSLKTFKRKSEVERACKRMRHLST [V16C], the protein stability index was 2.48. Under FSLKTFKRKSEVERAWKRMRHLST [V16W] stands 1.76; under FSLKTFVRKSEVERAVKRMRHLST [K7V], 2.91; under FSLKTFGRKSEVERAVKRMRHLST [K7G], 2.46. Under FSLKTFNRKSEVERAVKRMRHLST [K7N] stands 2.76; under FSLKTFQRKSEVERAVKRMRHLST [K7Q], 1.97; under FSLKTFMRKSEVERAVKRMRHLST [K7M], 2.66. With FSLKTFCRKSEVERAVKRMRHLST [K7C], the protein stability index came out at 1.63.

For FSLKTFPRKSEVERAVKRMRHLST [K7P], the protein stability index came out at 2.05. Regarding FSLKTFIRKSEVERAVKRMRHLST [K7I], the protein stability index was determined as 1.31. Regarding FSLKTFSRKSEVERAVKRMRHLST [K7S], the protein stability index turned out to be 1.69. For the variant FSLKTFARKSEVERAVKRMRHLST [K7A], the protein stability index is 1.78. In the case of FSLKTFYRKSEVERAVKRMRHLST [K7Y], the protein stability index was 1.77. In the case of FSLKTFTRKSEVERAVKRMRHLST [K7T], the protein stability index was 2.31. FSLKTFLRKSEVERAVKRMRHLST [K7L]: the protein stability index is 1.15. With FSLKTFHRKSEVERAVKRMRHLST [K7H], the protein stability index was determined as 2.05. As for FSLKTFRRKSEVERAVKRMRHLST [K7R], the protein stability index turned out to be 2.45. On to FSLKTFWRKSEVERAVKRMRHLST [K7W], for which the protein stability index stood at 1.9. Take FSLKTFDRKSEVERAVKRMRHLST [K7D]: the protein stability index amounted to 2.51.

Take FSLKTFFRKSEVERAVKRMRHLST [K7F]: the protein stability index was found to be 1.83. Under FSLKTFKSKSEVERAVKRMRHLST [R8S] stands 1.93; under FSLKTFKTKSEVERAVKRMRHLST [R8T], 2.47; under FSLKTFKDKSEVERAVKRMRHLST [R8D], 2.85. On to FSLKTFKVKSEVERAVKRMRHLST [R8V], for which the protein stability index worked out at 2.15. With FSLKTFKHKSEVERAVKRMRHLST [R8H], the protein stability index was found to be 3.3. Turning to FSLKTFKLKSEVERAVKRMRHLST [R8L], the protein stability index came to 2.48.

As to FSLKTFKFKSEVERAVKRMRHLST [R8F], the protein stability index is 1.43. Under FSLKTFKNKSEVERAVKRMRHLST [R8N] stands 2.17.

Consider FSLKTFKPKSEVERAVKRMRHLST [R8P], for which the protein stability index is 2.7.

On to FSLKTFKCKSEVERAVKRMRHLST [R8C], for which the protein stability index came out at 2.27. FSLKTFKQKSEVERAVKRMRHLST [R8Q]: the protein stability index was 2.49. As to FSLKTFKGKSEVERAVKRMRHLST [R8G], the protein stability index is 2.43. Take FSLKTFKYKSEVERAVKRMRHLST [R8Y]: the protein stability index came out at 2.29.

For the variant FSLKTFKKKSEVERAVKRMRHLST [R8K], the protein stability index amounted to 2.33. Under FSLKTFKMKSEVERAVKRMRHLST [R8M] stands 3.23; under FSLKTFKIKSEVERAVKRMRHLST [R8I], 2.12. As for FSLKTFKRKSKVERAVKRMRHLST [E11K], the protein stability index amounted to 3.17. With FSLKTFKRKSCVERAVKRMRHLST [E11C], the protein stability index was determined as 1.76. Regarding FSLKTFKRKSRVERAVKRMRHLST [E11R], the protein stability index worked out at 3.21. With FSLKTFKRKSMVERAVKRMRHLST [E11M], the protein stability index came to 2.8. Regarding FSLKTFKRKSYVERAVKRMRHLST [E11Y], the protein stability index stood at 2.09. For the variant FSLKTFKRKSPVERAVKRMRHLST [E11P], the protein stability index is 2.17. Under FSLKTFKRKSFVERAVKRMRHLST [E11F] stands 2.01. Turning to FSLKTFKRKSNVERAVKRMRHLST [E11N], the protein stability index worked out at 2.82.

Consider FSLKTFKRKSHVERAVKRMRHLST [E11H], for which the protein stability index came out at 2.29. For FSLKTFKRKSLVERAVKRMRHLST [E11L], the protein stability index came to 2.56.

As to FSLKTFKRKSAVERAVKRMRHLST [E11A], the protein stability index was 2.52.

FSLKTFKRKSGVERAVKRMRHLST [E11G]: the protein stability index was found to be 2.46. As for FSLKTFKRKSTVERAVKRMRHLST [E11T], the protein stability index was 2.99.

With FSLKTFKRKSDVERAVKRMRHLST [E11D], the protein stability index was 2.39. Under FSLKTFKRKSVVERAVKRMRHLST [E11V] stands 2.38.
